Assay results: the supplement of paper PMC10266784

B1: library; numbered along this chain (parent)
chain: MAAAAAAAAEQQSSNGPVKKSMREKAVERRSVNKEHNSNFKAGYIPIDEDRLHKTGLRGRKGNLAICVIILLFILAVINLIITLVIWAVIRIGPNGCDSMEFHESGLLRFKQVSDMGVIHPLYKSTVGGRRNENLVITGNNQPIVFQQGTTKLSVENNKTSITSDIGMQFFDPRTQNILFSTDYETHEFHLPSGVKSLNVQKASTERITSNATSDLNIKVDGRAIVRGNEGVFIMGKTIEFHMGGNMELKAENSIILNGSVMVSTTRLPSSSSGDQLGSGDWVRYKLCMCADGTLFKVQVTSQNMGCQISDNPCGNTH

Variants of: B1
Experiment: SGCB cell-surface expression functional score (HA stain, bin4 vs bin1, normalised to synonymous) (log10 ratio); higher = more cell-surface SGCB (functional)
Method: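 Deep mutational scan of full-length human SGCB (YFP-SGCB-HA, NNN codon sublibraries A-F) delivered by lentivirus at low MOI into ADG-HEK293 cells stably expressing SGCA, SGCD and SGCG. YFP-positive cells were stained for surface HA on unpermeabilized cells and FACS-sorted into bins. The functional score is log10(frequency in high bin 4 / frequency in low bin 1), normalised per chunk so that synonymous variants have mean 0 and SD 0.5. Scores are the median over codons and over duplicate biological replicates; scores below -0.5 are called non-functional. Scale: negative means deleterious.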

SGCB cell-surface expression functional score (log10): each site, then its substitutions
S31: E 0.24; D 0.16; C 0.19; F -0.24; A -0.25; G 0.19; H 0.19
V18: Y 0.14; Q 0.17; F 0; L -0.01; W 0.55; R 0.23; E 0.13; D 0.09; H -0.54; T 0.24; A 0.26; N -0.03; S 0.21; G 0.04; M -0.08; C -0.07; I 0.24; K 0.16; P 0.29
S21: Y -0.19; P 0.12; K 0.75; M -0.02; F -0.32; R 0.08; D 0.33; C 0.5; L -0.08; E -0.28; G 0.23; V 0.14; Q -0.25; I 0.3; A 0.2; T 0.07; N 0.32; W 0.3; H 0.03
R23: D -0.13; T 0.24; F 0.12; I -0.31; K -0.04; Y 0.05; Q 0.33; L 0.16; V 0.59; E 0.28; M -0.27; S -0.16; A -0.06; W -0.61; C 0.49; N 0.03; P 0.31; H 0.2; G 0.48
A26: W 0.15; G -0.21; D 0.34; H 0.39; Q 0.19; T 0.24; C -0.13; M 0.77; N -0.24; K 0.41; I 0.06; E 0.27; S 0.09; L -0.05; F 0.47; R 0.15; V 0.53; Y -0.11; P 0.09
P17: N 0.1; K 0.13; L -0.13; F 0.2; Q -0.31; Y 0.31; V -0.13; A 0.2; R -0.12; G -0.18; S 0.12; C 0.46; H 0.1; M -0.04; T 0.31; D 0.27; I -0.28; W -0.2; E 0.21
R30: C 0.31; I -0.19; A 0.22; G 0.59; F 0.27; K 0.16; Y -0.56; P -0.15; L 0.15; N 0.64; H -0.02; S 0.04; Q 0.15; M -0.06; W 0.33; T 0.19; E 0.42; V -0.05; D 0.85
K25: N 0.42; L 0.18; Q 0.5; S 0.46; C 0.39; V 0.16; Y -0.31; E 0.07; G -0.06; M -0.1; R -0.14; H -0.78; D 0.19; T 0.27; W -0.25; A -0.05; F -0.28; I 0.13; P 0.05
N15: E 0.33; W 0.29; M 0.35; R 0.19; K 0.05; T 0.14; C 0.19; A 0.45; Y 0.13; V 0.31; P 0.34; I 0.04; D -0.15; S -0.02; Q 0.32; G 0.04; F 0.28; H -0.07; L 0.32
M22: K 0.08; H 0.19; T 0.16; Y -0.14; R 0.01; F 0.1; D -0.21; P 0.17; Q 0.27; A 0.08; E 0.07; S 0.52; V 0.01; G -0.11; C 0.56; L 0.37; N 0.39; W 0.08; I -0.22
V27: T 0.04; Y 0.26; N 0.45; L 0.26; M -0.41; I 0.03; E 0.04; F 0.28; P -0.17; K 0.02; D -0.2; W 0.1; C -0.05; G -0.22; Q 0.09; R 0.06; H 0.05; S 0.13; A 0.22
S14: Q 0.46; W -0.06; A 0.14; G 0.43; V 0.21; D 0.3; N 0.61; L 0.1; K 0.31; E 0.27; Y -0.15; M 0.08; C 0.04; F 0.19; H 0.09; I 0.03; T -0.01; R 0.04; P 0.22
K20: E 0.06; F 0.1; T 0; M 0.39; L 0.12; Y -0.59; H -0.13; I 0.09; A 0.08; C 0.12; D 0.22; P 0.39; W 0.05; N -0.16; G -0.09; R 0.2; Q 0.49; V 0.32; S 0.14
S13: V 0.2; Y 0.05; W 0.8; T -0.13
R29: T -0.04; I 0.13; E 0.41; H -0.15; C 0.5; S 0.25; V -0.29; G 0.3; N 0.21; L -0.3; Y 0.23; Q 0.16; K -0.66; F -0.17; D -0.22; P 0.32; A 0.46; W 0.21; M -0.81
E28: T 0.1; I 0.42; Y 0.37; S 0.21; V 0.15; N -0.09; A -0.15; M 0.57; C 0.35; G -0.33; Q 0; D -0.25; P 0.08; H -0.19; F 0.2; K -0.15; L 0.05; R 0.1; W -0.12
E24: V 0.26; F -0.05; D 0.17; R -0.41; Q 0.01; N 0.02; T 0.2; M -0.63; G 0.08; C -0.3; L 0.02; A 0; Y -0.19; K 0.09; I 0.08; W 0.05; H 0.46; S 0.26; P 0
K19: H 0.21; G 0.02; V -0.01; Y 0.34; L 0.3; I 0.14; N 0.14; Q -0.12; T -0.07; R 0.18; P 0.42; W 0.32; F 0.01; E 0.33; A 0.35; D 0.06; M 0.02; C -0.11; S 0.21
G16: Q 0.97; E 0.38; R 0.04; C -0.06; S 0.37; F 0.52; W 0.23; T -0.27; L -0.08; A -0.31; P 0.37; V 0.38; Y 0.23; I -0.02; K 0.11; N 0.14; M 0.4; D 0.57; H 0.08
